First the molecules themselves.
B1: MA SG-F28 CC (D9R) (antibody, V domains shown)
VH: QVQLQESGPGLVKPSQTLSLTCTVSGDSISSNPYYWSWIRQHPGKCLEWIGYISYSGITNYNPSLKSRVTMSVDTSKNQFSLKLTSLTAADTAVYYCAREKMWFGVLNYYYGMDVWGQGTTVTVSS
VL: DIVMTQTPLSLPVTPGEPASISCRSSQSLLHRSGYNYLDWYLQKPGQSPQLLIYLGSNRASGVPDRFSGSGSGTDFTLKISRVEAGDVGVYYCMQALQTPWTFGCGTKVEIK
B2: MA 86-A4 CC (K2W) (antibody, V domains shown)
VH: QVQLVESGGGVVQPGRSLRLSCAASGFTFSTYGMHWVRQAPGKCLEWVAVISYDASNKYYAESVKGRFTISRDNSKNTLYLQMNSLRAEDTAVYYCARGQLLTGYWGQGTLVTVSS
VL: DIQMTQSPSSLSASVGDRVTITCRASQGISNYLAWYQQKPGKVPKLLIYAASTLQSGVPSRFSGSGSGTDFTLTISSLQPEDFATYYCQKYNSAPFTFGCGTKVEIK
B3: MA 81-B9 CC (U4L) (antibody, V domains shown)
VH: QVQLQESGPGLVKPSETLSLTCTVSGDSISSSRYYWGWIRQPPGKCLEWIGSIYYSGSTYYNPSLKSRVTISVDTSKNQFSLKLSSVTAADTAVYYCARGIFGVITYFDYWGQGTLVTVSS
VL: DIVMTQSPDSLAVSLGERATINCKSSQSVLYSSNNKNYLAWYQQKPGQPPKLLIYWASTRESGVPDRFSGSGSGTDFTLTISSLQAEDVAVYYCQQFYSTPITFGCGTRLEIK
B4: MA 09-G10 CC (C4K) (antibody, V domains shown)
VH: QITLKESGPTLVKPTQTLTLTCTFSGFSFTTHKMGVDWIRQPPGKCLEWLAGIHIYDDKRYSPSLQSRLTITKDTSKNQVVLTMTNMDPVDTATYYCAYRRYNWNYENWFDPWGQGTLVTVSS
VL: DIQMTQSPSSLSASVGDRVTITCQASQDISNYFNWYQQKPGKAPKLLIYAASSLQSGVPSRFSGSGSGTDFTLTISSLQPEDFATYYCQQSYITPFTFGCGTKVEIK
B5: MA 09-F12 CC (D1U) (antibody, V domains shown)
VH: QITLKESGPALVKPTQTLTLTCTFSGFSFTTHKMGVDWIRQPPGKCLEWLALIYWNDDKRYSPSLQSRLTITKDTSKNQVVLTMTNMDPVDTATYYCAYRRYNWNYENWFDPWGQGTLVTVSS
VL: DIQMTQSPSSLSASVGDRVTITCQASQDISNYLNWYQQKPGKAPKLLIYAASSLQSGVPSRFSGRGSGTDFTLTISSLQPEDFATYYCQQSYYYPTLFGCGTKVEIK
B6: MA 09-H10 CC (B6N) (antibody, V domains shown)
VH: QITLKESGPTLVKPTQTLTLTCTFSGFSFTTHKMGVDWIRQPPGKCLEWLALIYWNDDKRYSPSLQSRLTITKDTSKNQVVLTMTNMDPVDTATYYCAYRRYNWNYENWFDPWGQGTLVTVSS
VL: DIQMTQSPSSLSASVGDRVTITCQASQDISNYLNWYQQKPGKAPKLLIYAASSLQSGVPSRFSGRGSGTDFTLTISSLQPEDFATYYCQQSYTPPTTFGCGTKVEIK
B7: MA 09-F11 CC (L6Q) (antibody, V domains shown)
VH: QITLKESGPMLVKPTQTLTLTCTFSGFSFTTHKMGVDWIRQPPGKCLEWLALIYWNDDKRYSPSLQSRLTITKDTSKNQVVLTMTNMDPVDTATYYCAYRRYNWNYENWFDPWGQGTLVTVSS
VL: DIQMTQSPDSLSASVGDRVTITCQASQDISNYLNWYQQKPGKAPKLLIYAASSLQSGVPSRFSGSGSGTDFTLTISSLQPEDFATYYCQQSYMWPTIFGCGTKVEIK
B8: MA 09-H11 CC (I8L) (antibody, V domains shown)
VH: QITLKESGPTLVKPTQTLTLTCTFSGFSFTTHKMGVDWIRQPPGKCLEWLALIYWNDDKRYSPSLQSRLTITKDTSKNQVVLTMTNMDPVDTATYYCAYRRYNWNYENWFDPWGQGTLVTVSS
VL: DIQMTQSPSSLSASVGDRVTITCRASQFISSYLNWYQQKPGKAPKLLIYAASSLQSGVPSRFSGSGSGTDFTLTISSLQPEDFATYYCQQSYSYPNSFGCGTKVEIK
B9: MA 10-H1 CC (T9K) (antibody, V domains shown)
VH: EVQLVESGGGLVQPGGSLRLSCAASGFTFSNAWMSWVRQAPGKCLEWVGRITSGIYGGTTDYAAPVKGRFTISRDDSKNTLYLQMNSLKTEDTAVYYCTTPSYSGSYYNYFSVMDVWGQGTTVTVSS
VL: DIQMTQSPSSLSASVGDRVTITCRTSQSISSYLNWYQQKPGRAPKLLIFAASSLQSGVPSRFSGSGSGTDFTLTISSLQPEDFATYYCQQTYSMPFTFGCGTKVDIK
B10: MA 10-D6 CC (V6Z) (antibody, V domains shown)
VH: EVQLVESGGGLVKPGGSLRLSCAASGFTFSNAWMSWVRQAPGKCLEWVGRILNNAYGGTTDYAAPVKGRFTISRDDSKNTLYLQMNSLKTEDTAVYYCTTPSYSGSYYNYFSVMDVWGQGTTVTVSS
VL: DIQMTQSPSSLSASVGDRVTITCRTSQSISSYLNWYQQKPGRAPKLLIFAASSLQGGVPSRFSGSGSGTDFTLTISSLQPEDFATYYCQQTYSMPFTFGCGTKVDIK
B11: MA 09-G11 CC (Y9Q) (antibody, V domains shown)
VH: QITLKESGPMLVKPTQTLTLTCTFSGFSFTTHKMGVDWIRQPPGKCLEWLALIYWNDDKRYSPSLQSRLTITKDTSKNQVVLTMTNMDPVDTATYYCAYRRYNWNYENWFDPWGQGTLVTVSS
VL: DIQMTQSPSSLSASVGDRVTITCRASQFISSYLNWYQQKPGKAPKLLIYAASSLQSGVPSRFSGRGSGTDFTLTISSLQPEDFATYYCQQSYQSPTTFGCGTKVEIK
B12: MA 09-C7 CC (K9T) (antibody, V domains shown)
VH: QVTLKESGPALVKPTQTLTLTCTFSGFSFTTHKMGVDWIRQPPGKCLEWLAEIHSEDDKRYSPSLQSRLTITKDTSKNQVVLTMTNMDPVDTATYYCAYRRYNWNYENWFDPWGQGTLVTVSS
VL: DIQMTQSPSSLSASVGDRVTITCRASQSISNYFNWYQQKPGKAPKLLIYAASSLQSGVPSRFSGSGSGTDFTLTISSLQPEDFATYYCQQSYITPFTFGCGTKVEIK
B13: MA 10-D3 CC (O6B) (antibody, V domains shown)
VH: EVQLVESGGGLVQPGGSLRLSCAASGFTFSNAWMSWVRQAPGKCLEWVGRITSSRYGGTTDYAAPVKGRFTISRDDSKNTLFLQMNSLKTEDTAVYYCTTPSYSGSYYNYFSVMDVWGQGTTVTVSS
VL: DIQMTQSPSSLSASVGDRVTITCRTSQSISSYLNWYQQKPGRAPKLLIFAASSLQGGVPSRFSGSGSGTDFTLTISSLQPEDFATYYCQQTYSMPFTFGCGTKVDIK
B14: MA 09-E2 CC (V8T) (antibody, V domains shown)
VH: EVQLVESGGGLVQPGGSLRLSCAASGFTFSNAWMSWVRQAPGKCLEWVGRIKSKTYGGTTDYAAPVKGRFTISRDDSKNTLFLQMNSLKTEDTAVYYCTTPSYSGSYYNYFSVMDVWGQGTTVTVSS
VL: DIQMTQSPSSLSASVGDRVTITCRTSQSISSYLNWYQQKPGRAPKLLIFAASSLQGGVPSRFSGSGSGTDFTLTISSLQPEDFATYYCQQSYSSPFTFGCGTKVEIK
B15: MA 10-B5 CC (H6H) (antibody, V domains shown)
VH: EVQLVESGGGLVQPGGSLRLSCAASGFTFSNAWMSWVRQAPGKCLEWVGRIRSRSYGGTTDYAAPVKGRFTISRDDSKNTLFLQMNSLKTEDTAVYYCTTPSYSGSYYNYFSVMDVWGQGTTVTVSS
VL: DIQMTQSPSSLSASVGDRVTITCRTSQSISSYLNWYQQKPGRAPKLLIFAASSLQGGVPSRFSGSGSGTDFTLTISSLQPEDFATYYCQQTYSMPFTFGCGTKVEIK
B16: MA 03-G10_AS CC (N3H) (antibody, V domains shown)
VH: EVQLLESGGGLVQPGGSLRLSCAASGFTFSSYAMSWVRQAPGKCLEWVSAISGSGGGTYYAASVKGRFTISRDNSKNTLYLQMSSLRAEDTAVYYCATGKGVHLGFDYWGQGTLVTVSS
VL: SYVLTQPPSVSVAPGQTARITCGGNNIGSKSVHWYQQKPGQAPVMVVYDDNDRPSGIPERFSGSNSGNTATLTISRVEAGDEADYYCQVWDYSGQRQVFGCGTKLTVL
B17: MA 03-E7_AS CC (L6M) (antibody, V domains shown)
VH: EVQLLESGGGVVQPGRSLRLSCAASGFTFSSHAMSWVRQAPGKCLEWVSAISGSGGGTYYAASGKGRFTISRDNSKNTLYLQMNSLRAEDTAAYYCVTGKGVHLGFDYWGQGTLVTVSS
VL: SYVLTQPPSVSVAPGQTARITCGGNNIGSKSVHWYQQKPGQAPVMVVYDDNDRPSGIPERFSGSNSGNTATLTISRVEAGDEADYYCQVWDYNMNVWVFGCGTKLTVL
B18: MA 98-C7 CC (Y8P) (antibody, V domains shown)
VH: EVQLLESGGGLVQPGGSLRLSCAASGFTFSSHAMSWVRQAPGKCLEWVSSISGSGGGTYYAASVKGRFTISRDNSKNTLYLQMNSLRAEDTAVYYCATGKGVHLGFDYWGQGTLVTVSS
VL: SYVLTQPPSVSVAPGQTARITCGGNNIGSKSVHWYQQKPGQAPVMVVYDDNDRPSGIPERFSGSNSGNTATLTISRVEAGDEADYYCQVWDYSPLRHVFGCGTKLTVL
B19: MA 10-G10 AS CC (T1I) (antibody, V domains shown)
VH: EVQLLESGGGLVQPGGSLRLSCAASGFTFSSHAMSWVRQAPGKCLEWVSAISGSGGGTYNAASVKGRFTISRDNSKNTLYLQMNSLRAEDTAVYYCATGKGVHLGFDYWGQGTLVTVSS
VL: SYVLTQPPSVSVAPGQTARITCGGNNIGSKSVHWYQQKPGQAPVMVVYDDNDRPSGIPERFSGSNSGNTATLTISRVEAGDEADYYCQVWDYVAPRHVFGCGTKLTVL
B20: MA 03-D8 AS CC (L7E) (antibody, V domains shown)
VH: EVQLLESGGGLVQPGGSLRLSCAASGFTFSSHAMSWVRQAPGKCLEWVSTISGSGGGTYYAASVKGRFTISRDNSKNTLYLQMNSLRAEDTAVYYCATGKGVHLGFDYWGQGTLVTVSS
VL: SYVLTQPPSVSVAPGQTARITCGGNNIGSKSVHWYQQKPGQAPVMVVYDDNDRPSGIPERFSGSNFGNTATLIISRVEAGDEADYYCQVWDYRTLDWVFGCGTKLTVL
B21: MA 98-G12_AS CC (Q4Z) (antibody, V domains shown)
VH: EVQLLESGGGLVQPGGSLRLSCAASGFTFSSHAMSWVRQAPGKCLEWVSAISGSGGGTYNAASVKGRFTISRDNSKNTLYLQMNSLRAEDTAAYYCVTGKGVHLGFDYWGQGTLVTVSS
VL: SYVLTQPPSVSVAPGQTARITCGGNNIGSKSVHWYQQKPGQAPVMVVYDDNDRPSGIPERFSGSNFGNTATLIISRVEAGDEADYYCQVWDYFSMTHVFGCGTKLTVL
B22: MA 88-B3-F9 CC (Y4E) (antibody, V domains shown)
VH: QVQLVESGGGLVKPGGSLRLSCAASGFTFSDYYMSWIRQAPGKCLEWVSYISKSSYTVTYADAVKGRFTISRDNAKNSLYLQMNSLRAEDTAVYYCATYNYGHFDYWGQGTLVTVSS
VL: SYVLTQPPSVSVAPGQTARITCGGNNIGSKSVHWYQQKPGQAPVLVVYDDADRPSGIPERFSGSNSGNTATLTISRVEAGDEADYYCQVWDASAGYGVVFGCGTKLTVL

We go through 22 molecules from patent US12312412 (dated 2025).

As usually defined, the Kd is a measure of binding affinity in units of concentration. Read a high Kd as weaker binding.

This assay addresses MAGEB2 peptide … / HLA-A*02:01 / b2m (human). The assay is described as follows: FACS. (In general: A flow cytometer gives signals particle by particle.)
As for B1, binding was put at a Kd of 76800 pM.
B2 had a Kd of 35500 pM.
For B3, the affinity, expressed as Kd, was 18800 pM.
Take B4: the Kd turned out to be 800 pM.
Turning to B5, the Kd came out at 500 pM.
To B6 belongs 600 pM; to B7, 600 pM; to B8, 500 pM.
As for B9, the Kd was found to be 1200 pM.
Molecule B10 gave a Kd of 700 pM.
B11 had a Kd of 600 pM.
For B12, the Kd came out at 900 pM.
To B13 belongs 1100 pM; to B14, 700 pM; to B15, 700 pM.
Molecule B16 returned an equilibrium dissociation constant (Kd) of 900 pM.
On to B17, for which binding was put at a Kd of 500 pM.
In the case of B18, the Kd came to 700 pM.
The molecule B19 gave a Kd of 1700 pM.
The molecule B20 gave a Kd of 500 pM.
Then B21, with 900 pM; and B22, with 74100 pM.
